Here are results for 4 molecules from patent US20180010140A1 (WASHINGTON STATE UNIVERSITY, published 2018).

T1: BPM4 (At3 g03740), yeast two-hybrid construct (Arabidopsis thaliana, UniProt Q9SRV1 1-465, limits assumed)
T1 construct: Yeast two-hybrid fusion
T1 sequence (looked up): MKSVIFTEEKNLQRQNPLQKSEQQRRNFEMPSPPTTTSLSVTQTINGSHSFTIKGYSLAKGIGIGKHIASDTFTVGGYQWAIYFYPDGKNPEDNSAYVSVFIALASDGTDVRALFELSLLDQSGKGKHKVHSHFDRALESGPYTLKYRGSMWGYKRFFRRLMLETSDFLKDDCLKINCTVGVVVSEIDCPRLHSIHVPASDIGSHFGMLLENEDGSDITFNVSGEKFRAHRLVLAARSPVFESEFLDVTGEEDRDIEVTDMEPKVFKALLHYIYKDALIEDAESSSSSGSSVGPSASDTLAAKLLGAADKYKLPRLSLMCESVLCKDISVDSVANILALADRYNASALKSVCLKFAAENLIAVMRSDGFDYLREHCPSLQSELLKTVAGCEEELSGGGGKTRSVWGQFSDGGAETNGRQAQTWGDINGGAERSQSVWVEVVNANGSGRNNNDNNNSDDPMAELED

B1: BPM3 (At2 g39760), yeast two-hybrid construct (other)
chain: MSTVGGIEQLIPDSVSTSFIETVNGSHQFTIQGYSLAKGMSPGKFIQSDIFSVGGYDWAIYFYPDGKNPEDQSSYISLFIALASDSNDIRALFELTLMDQSGKGKHKVHSHFDRALEGGPYTLKYKGSMWGYKRFFKRSALETSDYLKDDCLVINCTVGVVRARLEGPKQYGIVLPLSNMGQGLKDLLDSEVGCDIAFQVGDETYKAHKLILAARSPVFRAQFFGPIGNNNVDRIVIDDIEPSIFKAMLSFIYTDVLPNVHEITGSTSASSFTNMIQHLLAAADLYDLARLKILCEVLLCEKLDVDNVATTLALAEQHQFLQLKAFCLEFVASPANLGAVMKSEGFKHLKQSCPTLLSELLNTVAAADKSSTSGQSNKKRSASSVLGCDTTNVRQLRRRTRKEVRAVS
notes: Yeast two-hybrid fusion (pACT2 or pBTM116-D9)
B2: BPM1 (At5 g19000), yeast two-hybrid construct (other, Arabidopsis thaliana, UniProt Q8L765 1-407, looked up)
chain: MGTTRVCSEVSSGSSKSLSQSLTVSTSTTETVNGFHEFKICGYSLAKGVGVGKYVASDTFMVGGYSWAIYFYPDGKSPEDNSSYVSLFIALASEGADVRALFELTLVDQSGNGKHKVHSHFGRALDSGPYTLKYRGSMWGYKRFFRRSSLESSDYLKENSLLVRCRVGVVKSVTEGPRYYNIPVPVSNLGQQLGNLLESGKGCDVVFQVDGETFNAHKLVLATRSPVFNAQLFGPLGDRNTKCITIEDMEAPIFKVLLHFIYWDELPDMQELIGTDSTLASTLVAQHLLAAADRYALERLKAICESKLCEGVAINTVATTLALAEQHHCLQLKAVCLKFVALPENLKAVMQTDGFDYLKESCPSLLTELLQYVARLSEHSVIVSGHRKEIFADGCDASGRRVKPRLH
notes: also called BTB/POZ-MATH protein 1
B3: BPM5 (At5 g21010), yeast two-hybrid construct (other, Arabidopsis thaliana, UniProt Q1EBV6 1-410, looked up)
chain: MSESVIQGSNPDRVLSPTSSKSVTQTVNGSHQFVIQGYSLAKGMGIGKHIASDNFSVGGYQWGIFFYPDGKNPEDNSSYVSVFIALASEGTEVRALFELALVDQSGKGKHKVHSHFERSLDGGPYTLKYRGSMWGYKRFFRRSILETSDYLKDDCLIINCTVGVVVSEILCPQLHSVHVPDSELGSHFGVLLDSMEGSDITFNIAGEKFLAHKLVLAARSPFFKSKFFSEFEANNTEVTINDLEPKVFKALLQFMYKDSLPEDVEPATAHTFERLKLSEIYETLIVKVLAAADKYDLIRLRLLCESHICKGVSVKSVAKILALADRYNAKELKGVCLKFTAENLAAVLETDAYQQMKDECVTLQSELLKAVAGHEEGSNSTGGAKSQSVWAQLSDGGGDTTSRHVRQRTT
notes: Yeast two-hybrid fusion
B4: WRI1 (At3 g54320), yeast two-hybrid construct (other, Arabidopsis thaliana, UniProt Q6X5Y6 1-430, looked up)
chain: MKKRLTTSTCSSSPSSSVSSSTTTSSPIQSEAPRPKRAKRAKKSSPSGDKSHNPTSPASTRRSSIYRGVTRHRWTGRFEAHLWDKSSWNSIQNKKGKQVYLGAYDSEEAAAHTYDLAALKYWGPDTILNFPAETYTKELEEMQRVTKEEYLASLRRQSSGFSRGVSKYRGVARHHHNGRWEARIGRVFGNKYLYLGTYNTQEEAAAAYDMAAIEYRGANAVTNFDISNYIDRLKKKGVFPFPVNQANHQEGILVEAKQEVETREAKEEPREEVKQQYVEEPPQEEEEKEEEKAEQQEAEIVGYSEEAAVVNCCIDSSTIMEMDRCGDNNELAWNFCMMDTGFSPFLTDQNLANENPIEYPELFNELAFEDNIDFMFDDGKHECLNLENLDCCVVGRESPPSSSSPLSCLSTDSASSTTTTTTSVSCNYLV
notes: Yeast two-hybrid fusion (bait pBTM116-D9 against BPM1 as prey; both bait and prey in the self-assembly test); also called WRINKLED1

Test in all cases: yeast two-hybrid
In data set [1] the target is B4.
Experimental: (§1) If not otherwise stated in this and subsequent FIGS. 30 μg of total protein extract were loaded as input, and experiments were done with 14-days old seedlings.
(§2) SDII selection medium supplemented with uracil and His was used as a transformation control, while for interaction studies, SDIV minimal medium was chosen without uracil and His supplements. Photos were taken from single spots 7 days after plating. […] Extraction and washing buffers contained at all times 1 mM PMSF (Sigma-Aldrich) and 10 μM MG132 (Sigma-Aldrich) to prevent proteolytic and proteasomal activities, respectively. […] In general, proteins were incubated at least 1.5 h at 4° C. under shaking conditions before being centrifuged.
For data set [2], the target named is T1, BPM4 (At3 g03740), yeast two-hybrid ….
Experimental: as §1, §2
The data set “yeast two-hybrid” concerns the molecule itself.
Experimental: as §1, §2

As for B1, the binding result in data set [1] is given as “binds”.

For B2, the binding result in data set [1] was “binds”.

As for B3, the binding result in data set [1] was “binds”.

With B4, the binding result (in data set [2]; in “yeast two-hybrid”) was “binds” in each case.
